Experimental data taken from the RNAGym collection of RNA variant scans (doi:10.1073/pnas.2313332121).
This sample holds only a part of the variants without activity.

B1: TPR 5TU (parent)
chain: GGAUCUUCUCGAUCUAACAAAAAAGACAAAUCUGCCACAAAGCUUGAGAGCAUCUUCGGAUGCAGAGGCGGCAGCCUUCGGUGGCGCGAUAGCGCCAACGUUCUCAACUAUGACACGCAAAACGCGUGCUCCGUUGAAUGGAGUUUAUCAUG

Variants of: B1
Assay: polymerase ribozyme fitness, log enrichment relative to wild type (log ratio); higher = more active; in vitro selection for triplet polymerase activity
Method in brief: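 Streptavidin-bead capture of gel-excised extended constructs, followed by RT-PCR, closed a single triplicate in vitro selection round. That round began by annealing PCR-built, transcribed mutant libraries of each subunit of a heterodimeric triplet polymerase ribozyme with a biotinylated primer, the partner subunit and triplets, then incubating them frozen at −7 °C. After Illumina sequencing of inputs and outputs, genotypes needed ≥10 input reads and ≥1 read per output. Fitness is the base-2 logarithm of genotype enrichment over wild-type enrichment, using inverse-variance-weighted replicate averages.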

Row | Variant | polymerase ribozyme fitness (log ratio)
1 | C38U G86U C118U | -2.07
2 | C38U G58A U61A U134C | -1.57
3 | A39G C87U A89G G126A C132U | ≤ -4.2
4 | A39C G143U | -4.15
5 | C38G U56A G86U U130A | ≤ -4.2
6 | C38U G62A C96U C129U | -0.672
7 | A39C C75U G83A | ≤ -4.2
8 | C38U C51U U56A G94U C105A A121U | -4.15
9 | C38U A60U C87U C95G U135A | ≤ -4.2
10 | A39C C96G A137U | ≤ -4.2
11 | A39C G59A C87A U139G | ≤ -4.2
12 | C38A C85G G86U | ≤ -4.2
13 | C38U U56A G70C A91U U104A A107C U145A | ≤ -4.2
14 | A39C G92U C95A G112A U145G | ≤ -4.2
15 | A39G C118U | -1.27
16 | C38A U55A C85A | -2.66
17 | C38U C125A | -0.6
18 | C38U G81A C99G A120U G124C | -3.02
19 | C38U C93U A121G G124A U135G | ≤ -4.2
20 | C38U C76U G81C | -0.0752
21 | C38U U45A G68C U102G A138G | ≤ -4.2
22 | C38G A40U U55A U56A C87U A89C | -3.99
23 | C38A G84A G86C G117U | ≤ -4.2
24 | C38U C116G U148A | -3.89

Row | Variant | polymerase ribozyme fitness (log ratio)
25 | C38U U61A A106C G141A | -3.01
26 | C38G C43U G81U G86U A98G C103G A150G U151C | ≤ -4.2
27 | C38U A40C G80U C95U | -1.06
28 | A39G C87U A147C C149A | ≤ -4.2
29 | A39C C63A A64U G84A C93G C116G | ≤ -4.2
30 | C38U A39C U61G G124C | -3.96
31 | A39C G88U A97G A122G | ≤ -4.2
32 | A39C C118U A120U | -1.81
33 | C38U A120U | -0.54
34 | C38U C96G | -1.09
35 | A39C C57A G86A U130C | -2.93
36 | C38U G46A C95A | -0.705
37 | C38G A40G A49G A60U C93A A121G | ≤ -4.2
38 | C38U A52G C57U G67U A89U G92A | ≤ -4.2
39 | A39C G84A U144A | -2.69
40 | A37U U56A C99U G143U | -3.88
41 | C38U U55G C85A | -2.3
42 | A39G A47C C123U A150G G152A | -3.23
43 | C38A G42C U55G C69U U90G U146C | ≤ -4.2
44 | C38A A89C C93G C95G C108U U135C | ≤ -4.2
45 | C38G G58C G84A A119U | -0.795
46 | C38U G88C G126C A147C | ≤ -4.2
47 | C38U U90G C95A | ≤ -4.2
48 | C38A U56G G136C U146C | -3.92

Row | Variant | polymerase ribozyme fitness (log ratio)
49 | C38A G58U C95G | -1.52
50 | A39C U53C U135C | -3.94
51 | C38G C54U C57U G141C | -2.86
52 | C38A C96U C99U | -0.43
53 | C38U G50A A73U G126U | -3.21
54 | C38U C85G C93U G117U G128C | ≤ -4.2
55 | A37U U45A G46C C85U C105U U144A | ≤ -4.2
56 | C38U C95U | -0.731
57 | C38U C95A | -1.07
58 | C38U C69G C95U A122C | -2.43
59 | A37U U101G U134G G141A | -4.08
60 | A39G A60C G67U C99G G143C | ≤ -4.2
61 | C38A C43A U55A C87U G117A | ≤ -4.2
62 | C38A G94U G143U | ≤ -4.2
63 | C38G U56A G94A A121G | -1.64
64 | C38A C76A G92U G136A G152U | ≤ -4.2
65 | C38U C95A C108U C132U | -3.39
66 | C38U C57G A89U G100C | ≤ -4.2
67 | A39C G71C U78A C95U A122G | ≤ -4.2
68 | C38A C57G U77G C79U A91G | ≤ -4.2
69 | A39G G42A C87G | ≤ -4.2
70 | C38U G94U | -0.0168
71 | C38U G50U U56A G74U C75G C125U U139A | ≤ -4.2
72 | C38U U56A A60U C95A | -1.13

Row | Variant | polymerase ribozyme fitness (log ratio)
73 | A37U U55G A60G C85G A107C C131U | ≤ -4.2
74 | A39C G42C C76A U144G | ≤ -4.2
75 | C38A C96G | -0.458
76 | A39G A41G A49G G83C U145A | -3.94
77 | C38U A73U | 0.0337
78 | A39C A41C A115G G124A | -3.47
79 | C38U A60C C85U C118U G136A | -0.726
80 | C38U C87U G94U | -1.73
81 | C38A G86C | -3.27
82 | A39C C54A G81A | -3.05
83 | C38A C85A U144C | -0.839
84 | A39G A89G G92A G141C | -3.85
85 | C38U A49C | ≤ -4.2
86 | A39C G88C A97G C114G | ≤ -4.2
87 | C38U A49U U61G G83U G133C A142C | ≤ -4.2
88 | A39C A41C G86U U139G | ≤ -4.2
89 | C38U G84U | -2.42
90 | A39C G141U | -2.91
91 | C38U U78C C95U | -0.556
92 | C38A C87U A98G A106C C125A U135A C149A | ≤ -4.2
93 | A37U G92C G133C | -3.52
94 | A39C U53A G62C U144A | ≤ -4.2
95 | C38G G141A | -0.0444
96 | C38G A60G C76G G81A G84U U102G C116U G128A | ≤ -4.2

Row | Variant | polymerase ribozyme fitness (log ratio)
97 | C38U U55A C85U | -0.272
98 | A39C U53A G86C C105A A119U | ≤ -4.2
99 | A39C A52G C123G | -2.84
100 | C38U U55A A60G C75G C76G A115U A122U C125G | ≤ -4.2
101 | C38G G42U G68A U77A C96U G141U | ≤ -4.2
102 | A39C U55G G81C A121U | -2.31
103 | C38U U56A A147C | -0.21
104 | C38A G48C G71U | ≤ -4.2
105 | A39G A73G U109A A119U | -3.91
106 | C38G C54G C76G A107U U146G | ≤ -4.2
107 | C38A U53A C63U G80A C95A | ≤ -4.2
108 | C38G C43U C87A C132G U135G G136C U146A | ≤ -4.2
109 | A39G C75U C85U A137G | -3.67
110 | A39C A40C A49C | ≤ -4.2
111 | A39C C79G G92A | -3.32
112 | C38U C95G U102A | -2.51
113 | C38U G80C C85U G100U | ≤ -4.2
114 | C38U U44A G70C U134G | ≤ -4.2
115 | C38A A47C C96A | -1.63
116 | C38U A52G C93G G117U | -3.91
117 | C38G A40G G83A | -3.86
118 | C38U U145A | 0.631
119 | C38G G42C U82G G86C G141C U144G | ≤ -4.2
120 | C38U U45A G92C | -4.13

Row | Variant | polymerase ribozyme fitness (log ratio)
121 | A39G A147U | -0.693
122 | C38A U56A G74C G92U U109G | ≤ -4.2
123 | C38U A41U G94A | -1.15
124 | C38A U55A U135A U146C | -1.06
125 | C38A A41U A52C | -2.5
126 | C38U U61C U145A | -2.49
127 | A39C C87U U101G G117U | -3.2
128 | C38A C95A C118A | -1.55
129 | C38U C96G A142U U146A | -1.67
130 | C38U G136U | -2.3
131 | A37U U134G | -2.86
132 | C38U G81C U111G A138G | ≤ -4.2
133 | A37U G94A | -1
134 | C38U U53G C96G | -1.73
135 | C38A G58C C87U | -0.072
136 | C38G C85A C116A A120G | -2.28
137 | C38G U56G C72A A91U A107C G117A U148A | ≤ -4.2
138 | A39C U145C | -1.66
139 | C38A C93G C123G | -3.67
140 | C38U G62A A113G G136A | -2.45
141 | C38A U148A | -4.04
142 | A39C A52G | -2.32
143 | C38U U44A A47U G67C C69U G84A | ≤ -4.2
144 | A37U G88U G92C A122G G133U G143A A150U | -4.06

Row | Variant | polymerase ribozyme fitness (log ratio)
145 | A39C A91U G94A G133C A142U U145A U148A | ≤ -4.2
146 | A39G C54G C57A | -3.22
147 | C38U A110U | -3.7
148 | A37U G80C G81C U102A A110U C118G A120U G133U | ≤ -4.2
149 | A39C G68A G80A C118U G128U | ≤ -4.2
150 | C38U C76G | ≤ -4.2
151 | C38A C93G C96U A115G G117A | ≤ -4.2
152 | A37U U135A | -2.34
153 | C38U C93A A119C A142U | -3.54
154 | A39C C118G | -2.92
155 | C38U A106U U145C | -1.24
156 | C38U C87U C95U U144A | -1.21
157 | C38A C43G C105G C116U | ≤ -4.2
158 | C38U C51G U82C C96A A97U C125G | -3.55
159 | C38A A122U A137G G141U A142G | -3.83
160 | A37U U56C C69U | -2.76
161 | A37U U61A A89C C96A A98C U104A | ≤ -4.2
162 | C38A C54A C63U G70U C75U C87A | ≤ -4.2
163 | A39C A60G C87U A147C | -3.78
164 | C38U G86A U148C | -3.22
165 | C38U U55G G83U U135C | -1.98
166 | C38U A52C A60G A119G | 0.129
167 | C38U A40U C116U U135A | 0.399
